{
  "source": "patent US20080045450A1",
  "about": "“GLP-2 Derivatives” (priority 1996, published 2008)",
  "test": "Helix content by circular dichroism (CD) at 222 nm in aqueous solution",
  "type": "physicochemical",
  "from_the_text": "The size of the partially helical, micelle-like aggregates may be estimated by size-exclusion chromatography. Similarly, the apparent (critical micelle concentrations) CMC's of the peptides may be estimated from the concentration dependent fluorescence in the presence of appropriate dyes (e.g. Brito, R. & Vaz, W. (1986) Anal. Biochem. 152, 250-255).\nFor the GLP-2 derivatives forming partially structured micellar-like aggregates in aqueous solution the helix content remains constant above 30% at concentrations of 10 μM. The aggregated structured conformation is an inherent property of the derivative present in water or dilute aqueous buffer without the need for any additional structure-inducing components. Note that the CD signal is proportional to the average content of α-helix in the peptides, i.e., a CD value of −1 corresponds to 10% α-helix content under these conditions.",
  "data": [
    {"substance": "native GLP-2: human glucagon-like peptide-2, a 33 amino acid residue peptide; parent peptide of the derivatives", "values": [
      {"measurement": "helix content", "setting": "at 500 μM concentration, in parallel with peptide self-association", "result": "30-35%"},
      {"measurement": "helix content", "setting": "starting value at low peptide concentration, before the increase seen with increasing concentration", "result": "10-15%"}
    ]}
  ]
}
